Assay results as given in patent US20180193437A1 (UNIVERSITY OF FLORIDA RESEARCH FOUNDATION, published 2018).

Target: T1, rabbit IFNγ (rabbit, UniProt P30123 24-167)
T1 construct: also called rabbit IFNgamma; interferon gamma
T1 sequence (looked up): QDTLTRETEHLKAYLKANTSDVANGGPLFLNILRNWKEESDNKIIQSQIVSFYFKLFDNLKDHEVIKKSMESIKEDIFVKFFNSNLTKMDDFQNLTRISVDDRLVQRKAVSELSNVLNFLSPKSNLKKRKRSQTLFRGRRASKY
Assay: binding data, method not described

B1: M-T7 point mutation E209I (other)
chain: VRLTSYDLNTFVTWQDDGYTYNVSIKPYTTATWINVCEWASSSCNVSLALQYDLDVVSWARLTRVGKYTEYSLEPTCAVARFSPPEVQLVRTGTSVEVLVRHPVVYLRGQEVSVYGHSFCDYDFGYKTIFLFSKNKRAEYVVPGRYCDNVECRFSIDSQESVCATAVLTYDGSYRSEAGVEVCVPELAKRIVSPYIVKKSSDLEYVKRAIHNEYRLDTSSEGRRLEELYLTVASMFERLVEDVFE
notes: The mutant was made by mutagenic PCR of the His-tagged M-T7 construct; also called M-T7 (E209I); not shown: C-terminal His tag (His6x)
Does B1 bind?
Result: no binding
